This is an account of results in patent publication US20250215104A1 (published 2025).

The experiment deals with human suPAR (hsuPAR) recombinant protein (human, UniProt Q03405 23-303). Description: BLI; avid.
human suPAR (hsuPAR) recombinant protein, sequence (Q03405 23-303): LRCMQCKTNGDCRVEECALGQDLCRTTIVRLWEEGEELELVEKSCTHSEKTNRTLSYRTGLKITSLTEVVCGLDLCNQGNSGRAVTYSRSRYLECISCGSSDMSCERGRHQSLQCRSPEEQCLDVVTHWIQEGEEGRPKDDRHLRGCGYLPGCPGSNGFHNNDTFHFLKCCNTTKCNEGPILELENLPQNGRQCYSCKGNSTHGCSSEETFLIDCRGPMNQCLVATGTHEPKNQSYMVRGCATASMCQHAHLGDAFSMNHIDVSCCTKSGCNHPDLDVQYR

B1: WAb0014 (antibody, V domains shown)
VH: QVQLVQSGAEVKKPGASVKVSCKASGYTFTNYYMHWVRQAPGQGLEWMGWIDHESGSTIYAQKFQGRVTMTRDTSTSTVYMELSSLRSEDTAVYYCARGYDVDWFVYWGQGTLVTVSS
VL: DIQMTQSPSSLSASVGDRVTITCSARQSVSYMYWYQQKPGKAPKLLIYRTSNLASGVPSRFSGSGSGTDFTLTISSLQPEDFATYYCQQYHSYPPTFGGGTKVEIKR
As a reminder, the Kd is a measure of binding affinity in units of concentration. Consider B1, for which the Kd was less than 1 pM.
